For experiment [1], the target named is T1, ZAP-70 tSH2 WT (1–256).
T1 chain: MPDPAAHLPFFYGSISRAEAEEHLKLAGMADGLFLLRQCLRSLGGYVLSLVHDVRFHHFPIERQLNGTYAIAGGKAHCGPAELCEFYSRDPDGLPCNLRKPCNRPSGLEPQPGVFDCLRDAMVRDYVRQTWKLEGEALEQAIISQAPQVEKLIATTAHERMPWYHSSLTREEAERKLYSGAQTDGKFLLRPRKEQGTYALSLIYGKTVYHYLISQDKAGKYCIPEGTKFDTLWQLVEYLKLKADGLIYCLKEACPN
The experiment in a line: ITC; Kd2, second site. In general terms: Isothermal titration calorimetry measures the heat released or taken up as one component is titrated into another.

Experiment [2] deals with T1, ZAP-70 tSH2 WT (1–256). The experiment in a line: Kd1, first site (intrinsic fluorescence titration).
The target in a further experiment is ITAM-Y2P-ζ3 ITAM3 (Homo sapiens, UniProt P20963, doubly phosphorylated ITAM).
Sequence of ITAM-Y2P-ζ3 ITAM3 (P20963 128-162): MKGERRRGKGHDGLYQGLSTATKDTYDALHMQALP

Where no end group is shown, it is not given here. [ ]: non-standard residue; d: D form. pY = N[C@@H](Cc1ccc(OP(=O)(O)O)cc1)C(=O)O

B1: ITAM-Y2P-ζ1 E13A (peptide)
chain: NQL[pY]NELNLGRRAE[pY]DVLD
For orientation: Kd means a measure of binding affinity in units of concentration. Low readings indicate a tighter complex, high ones a looser complex. As for B1, the Kd with ZAP-70 tSH2 WT (1–256) [1] was found to be 9800 nM; with ZAP-70 tSH2 WT (1–256) [2], 4.5 nM.

B2: ZAP-70 C-SH2 (protein)
chain: WYHSSLTREEAERKLYSGAQTDGKFLLRPRKEQGTYALSLIYGKTVYHYLISQDKAGKYCIPEGTKFDTLWQLVEYLKLKADGLIYCLKEAC
For the molecule B2, the Kd in the experiment with ITAM-Y2P-ζ3 ITAM3 stood at 6.8 nM.

(Values after article PMC9486129 (2022).)
